Data taken from patent US20250361297A1 (ADAPTAM THERAPEUTICS S L, published 2025).

How the values were obtained:
[1] = target: T1, mouse Siglec-15, full length, expressed on HEK293T cells (mouse); assay: IgG1 titration, flow cytometry on HEK293T cells expressing mouse Siglec-15
T1 construct: also called mS15; HEK293T cells expressing mouse Siglec-15
T1 chain: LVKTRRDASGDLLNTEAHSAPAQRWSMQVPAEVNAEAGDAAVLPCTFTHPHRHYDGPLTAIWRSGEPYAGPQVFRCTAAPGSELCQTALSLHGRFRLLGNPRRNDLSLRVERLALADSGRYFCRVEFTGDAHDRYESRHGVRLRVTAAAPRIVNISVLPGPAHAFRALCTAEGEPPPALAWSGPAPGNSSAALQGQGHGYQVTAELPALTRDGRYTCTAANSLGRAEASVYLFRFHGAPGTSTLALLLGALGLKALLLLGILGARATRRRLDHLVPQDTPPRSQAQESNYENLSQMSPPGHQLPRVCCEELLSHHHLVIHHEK

[2] = target: T2, human Siglec-15, full length, expressed on cells (human, UniProt Q6ZMC9 20-328); assay: IgG1 titration, flow cytometry on MOLM-13 human Siglec-15 cells
T2 construct: also called hS15; MOLM-13 Siglec-15 expressing cells
T2 sequence: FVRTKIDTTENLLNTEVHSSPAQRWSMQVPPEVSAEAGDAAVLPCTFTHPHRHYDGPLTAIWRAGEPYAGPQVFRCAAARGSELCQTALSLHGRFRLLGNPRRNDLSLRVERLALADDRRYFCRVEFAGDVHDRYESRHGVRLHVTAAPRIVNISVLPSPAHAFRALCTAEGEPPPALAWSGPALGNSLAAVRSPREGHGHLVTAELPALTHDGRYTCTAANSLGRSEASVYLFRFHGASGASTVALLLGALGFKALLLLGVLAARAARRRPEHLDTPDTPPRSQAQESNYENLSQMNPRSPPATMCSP

[3] = target: T3, truncated human Siglec-15 comprising only domain 2 (D2), expressed on HEK293T cells (human, UniProt Q6ZMC9 168-251, limits assumed); assay: flow cytometry, HEK293T cells expressing only domain 2 of human Siglec-15, fold change of Siglec15 gMFI relative to 2ry control
T3 construct: also called domain 2-only human Siglec-15; Siglec-15 Domain 2 (D2) HEK293T cells
T3 sequence: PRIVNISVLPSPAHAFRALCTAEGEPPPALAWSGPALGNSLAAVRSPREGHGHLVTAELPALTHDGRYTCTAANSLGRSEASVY

[4] = target: T4, recombinant human Siglec-15-his protein (Bonopusbio) (human, UniProt Q6ZMC9 20-263); assay: SPR (Biacore T200), antibody on CM5 chip, Siglec-15-his as analyte
T4 construct: Bought (CW37-50 ug in the ELISA; the SPR paragraph prints CW70-50 ug); whole entry named; also called recombinant human Siglec-15 protein
T4 sequence: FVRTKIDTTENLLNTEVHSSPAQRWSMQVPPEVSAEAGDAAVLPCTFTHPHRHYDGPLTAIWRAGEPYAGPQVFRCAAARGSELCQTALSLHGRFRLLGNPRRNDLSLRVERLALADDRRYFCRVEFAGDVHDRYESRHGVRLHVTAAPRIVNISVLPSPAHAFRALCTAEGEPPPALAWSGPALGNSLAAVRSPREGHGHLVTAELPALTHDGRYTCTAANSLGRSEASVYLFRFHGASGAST

[5] = target: T2, human Siglec-15, full length, expressed …; assay: flow cytometry, HEK293T cells expressing human Siglec-15, anti-human IgG-PE, MFI
[6] = target: T5, recombinant Siglec-15 (bispecific antibody affinity assay) (Homo sapiens (Human), UniProt Q6ZMC9 20-263, limits assumed); assay: antibody as ligand, human Siglec15 as analyte; legend paragraph 114 says BLI, methods paragraph 422 say Biacore SPR, table in RU
T5 sequence: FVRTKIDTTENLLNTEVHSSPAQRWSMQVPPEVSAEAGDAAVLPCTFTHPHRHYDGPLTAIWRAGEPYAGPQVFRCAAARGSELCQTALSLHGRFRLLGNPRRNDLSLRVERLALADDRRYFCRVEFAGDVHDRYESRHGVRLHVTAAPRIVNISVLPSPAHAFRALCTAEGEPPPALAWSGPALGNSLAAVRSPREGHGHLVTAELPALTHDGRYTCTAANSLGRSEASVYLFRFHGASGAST

[7] = target: recombinant CD3 (UniProt P07766 23-126; P09693 23-116); assay: antibody as ligand, 'Human CD3 epsilon&CD3 gamma' as analyte; legend paragraph 116 says BLI, methods paragraph 422 say Biacore SPR, table in RU
recombinant CD3, sequence (P07766 23-126, form in doubt, chain 1 of 2): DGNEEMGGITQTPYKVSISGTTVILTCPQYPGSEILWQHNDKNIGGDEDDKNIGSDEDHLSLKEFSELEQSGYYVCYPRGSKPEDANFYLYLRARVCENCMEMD
recombinant CD3, sequence (P09693 23-116, form in doubt, chain 2 of 2): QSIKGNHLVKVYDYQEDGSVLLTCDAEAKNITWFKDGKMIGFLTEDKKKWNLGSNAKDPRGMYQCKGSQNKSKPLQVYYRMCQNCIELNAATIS

Binder | EC50 [1] | EC50 [2] | binding result [3] | Kd [4] | koff [4] | kon [4] | further results
ZLA-1212-B05 (antibody, V domains shown, Fully human, from phage display; also called clone ZLA-1212-B05) VH: QVQLVQSGGGVVQPGRSLRLSCAASGFTFSSYAMHWVRQAPGKGLEWVAVISYDGSNKYYADSVKGRFTISRDNSKNTLYLQMNSLRAEDTAVYYCAREGGSYYGYFDYWGQGTLVTVSS VL: QSVLTQPPSVSVAPGKTARITCGGNNIGSKSVHWYQQKPGQAPVLVIYDDSDRPSGIPERFSGSNSGNTATLTISRVEAGDEADYYCQVWDSSSDHRVFGGGTKLTVL | 0.168 µg/mL | 0.215 µg/mL | no binding | – | – | – | –
ZLA-1212-E09 (antibody, V domains shown, also called clone ZLA-1212-E09) VH: QVQLVQSGGGVVQPGRSLRLSCAASGFTFSSYGMHWVRQAPGKGLEWVAVISYDGSNKYYADSVKGRFTISRDNSKNTLYLQMNSLRAEDTAVYYCAKDDSGYYDSSGYDYWGQGTLVTVSS VL: QSVLTQPPSVSGAPGQRVTISCTGSSSNIGAGYDVHWYQQLPGTAPKLLIYGNSNRPSGVPDRFSGSKSGTSASLAITGLQAEDEADYYCQSYDSSLSGVVFGGGTKLTVL | 0.191 µg/mL | 0.178 µg/mL | no binding | – | – | – | –
ZLA-1214-B07 (antibody, V domains shown, Fully human, from phage display) VH: QVQLVQSGAEVKKPGSSVKVSCKASGGTFSSYAISWVRQAPGQGLEWMGGIIPIFGTANYAQKFQGRVTITADESTSTAYMELSSLRSEDTAVYYCARDGGRDGYNPKKILEFDYWGQGTLVTVSS VL: not shown | 0.102 µg/mL | 0.133 µg/mL | no binding | – | – | – | –
ZLA-1214-D08 (antibody, V domains shown, Fully human, from phage display) VH: EVQLVQSGAEVKKPGASVKVSCKASGYTFTGYYMHWVRQAPGQGLEWMGRINPNSGGTNYAQKFQGRVTMTRDTSTSTAYMELSRLRSDDTAVYYCARVINDAFDMWGQGTMVTVSS VL: not shown | 0.103 µg/mL | 0.106 µg/mL | no binding | – | – | – | –
S15B1-VH3 + VL2 (antibody, V domains shown, Humanized S15B1; also called humanized S15B1 VH3+VL2; huS15B1) VH: QVQLVQSGAEVKKPGASVKVSCKASGYAFSSSWMNWVKQAPGQGLEWIGRIYPGHGETNYNGKFKDRATMTADTSTSTVYMELSSLRSEDTAVYFCARVDNSDPYYFDYWGQGTTVTVSS VL: DIVLTQSPASLAVSPGQRATITCRASKSVSTSGYSYMHWYQQKPGQPPKLLIYLASNLESGVPARFSGSGSGTDFTLTINPVEAEDTATYYCQHGRELPFTFGGGTKLEIK | – | – | – | 65.3 pM | 0.000293 s⁻¹ | 4.49e+06 M⁻¹ s⁻¹ | EC50 (read off the curve) [5]: ~1000 pM
S15B1-VH2 + VL1 (antibody, V domains shown, Humanized S15B1; also called humanized S15B1 VH2+VL1; huS15B1) VH: QVQLVQSGAEVKKPGASVKVSCKASGYAFSSSWMNWVRQAPGQGLEWIGRIYPGHGETNYNGKFKDRVTMTADTSTSTVYMELSSLRSEDTAVYFCARVDNSDPYYFDYWGQGTTVTVSS VL: DIVLTQSPASLAVSPGQRATITCRASKSVSTSGYSYMHWYQQKPGQPPKLLIYLASNLESGVPARFSGSGSGTDFTLTINPVEAEDTANYYCQHGRELPFTFGGGTKLEIK | – | – | – | 125 pM | 0.000473 s⁻¹ | 3.8e+06 M⁻¹ s⁻¹ | –
S15B1-VH1 + VL1 (antibody, V domains shown, Humanized S15B1; also called humanized S15B1 VH1+VL1; huS15B1) VH: QVQLVQSGAEVKKPGASVKVSCKASGYAFSSSWMNWVRQAPGQGLEWIGRIYPGHGETNYNGKFKDRVTMTADTSTSTVYMELSSLRSEDTAVYFCARVDNSDPYYFDYWGQGTTVTVSS VL: DIVLTQSPASLAVSPGQRATITCRASKSVSTSGYSYMHWYQQKPGQPPKLLIYLASNLESGVPARFSGSGSGTDFTLTINPVEAEDTANYYCQHGRELPFTFGGGTKLEIK | – | – | – | 136 pM | 0.000455 s⁻¹ | 3.35e+06 M⁻¹ s⁻¹ | –
S15B1-VH4 + VL2 (antibody, V domains shown, Humanized S15B1; also called humanized S15B1 VH4+VL2; huS15B1) VH: QVQLVQSGAEVKKPGASVKVSCKASGYAFSSSWMNWVKQAPGQGLEWIGRIYPGHGETNYNGKFKDRATMTADKSTSTVYMELSSLRSEDTAVYFCARVDNSDPYYFDYWGQGTTVTVSS VL: DIVLTQSPASLAVSPGQRATITCRASKSVSTSGYSYMHWYQQKPGQPPKLLIYLASNLESGVPARFSGSGSGTDFTLTINPVEAEDTATYYCQHGRELPFTFGGGTKLEIK | – | – | – | 138 pM | 0.000234 s⁻¹ | 1.69e+06 M⁻¹ s⁻¹ | –
S15B1-VH1 + VL2 (antibody, V domains shown, Humanized S15B1; also called humanized S15B1 VH1+VL2; huS15B1) VH: QVQLVQSGAEVKKPGASVKVSCKASGYAFSSSWMNWVRQAPGQGLEWIGRIYPGHGETNYNGKFKDRVTMTADTSTSTVYMELSSLRSEDTAVYFCARVDNSDPYYFDYWGQGTTVTVSS VL: DIVLTQSPASLAVSPGQRATITCRASKSVSTSGYSYMHWYQQKPGQPPKLLIYLASNLESGVPARFSGSGSGTDFTLTINPVEAEDTATYYCQHGRELPFTFGGGTKLEIK | – | – | – | 159 pM | 0.000563 s⁻¹ | 3.54e+06 M⁻¹ s⁻¹ | –
S15B1-VH4 + VL1 (antibody, V domains shown, Humanized S15B1; also called humanized S15B1 VH4+VL1; huS15B1) VH: QVQLVQSGAEVKKPGASVKVSCKASGYAFSSSWMNWVKQAPGQGLEWIGRIYPGHGETNYNGKFKDRATMTADKSTSTVYMELSSLRSEDTAVYFCARVDNSDPYYFDYWGQGTTVTVSS VL: DIVLTQSPASLAVSPGQRATITCRASKSVSTSGYSYMHWYQQKPGQPPKLLIYLASNLESGVPARFSGSGSGTDFTLTINPVEAEDTANYYCQHGRELPFTFGGGTKLEIK | – | – | – | 93.8 pM | 0.000385 s⁻¹ | 4.1e+06 M⁻¹ s⁻¹ | –
S15B1-VH2 + VL2 (antibody, V domains shown, Humanized S15B1; also called humanized S15B1 VH2+VL2; huS15B1) VH: QVQLVQSGAEVKKPGASVKVSCKASGYAFSSSWMNWVRQAPGQGLEWIGRIYPGHGETNYNGKFKDRVTMTADTSTSTVYMELSSLRSEDTAVYFCARVDNSDPYYFDYWGQGTTVTVSS VL: DIVLTQSPASLAVSPGQRATITCRASKSVSTSGYSYMHWYQQKPGQPPKLLIYLASNLESGVPARFSGSGSGTDFTLTINPVEAEDTATYYCQHGRELPFTFGGGTKLEIK | – | – | – | 94.6 pM | 0.000326 s⁻¹ | 3.44e+06 M⁻¹ s⁻¹ | EC50 (read off the curve) [5]: ~1000 pM
ZLA-1243-E01 (antibody, V domains shown, Fully human, from phage display) VH: QVQLVQSGGGLVQPGRSLRLSCAASGFTFDDYAMHWVRQAPGKGLEWVSGISWNSGSIGYADSVKGRFTISRDNAKNSLYLQMNSLRAEDTALYYCAKGLWPSYDLDAFDIWGQGTMVTVSS VL: QSALTQPASVSGSPGQSITLSCTGTSSDVGAYNFVSWYQQHPGTAPKLMIYEVSNRPSGVSDRFSGSKSGNTASLTISGLQAEDEADYYCSSYTSTIPPFVFGTGTKVTVL | 0.0849 µg/mL | 0.174 µg/mL | no binding | – | – | – | –
BsAb-2 (bispecific antibody, human IgG1, kappa, L234A L235A, 2 + 1 format; also called anti-Siglec-15/CD3 bispecific antibody, Format-2: KIH & scFv (2 + 1)) light 1: not shown heavy 1: QVQLQQSGPELVKPGASVKISCKASGYAFSSSWMNWVKQRPGKGLEWIGRIYPGHGETNYNGKFKDKATVTADKSSSTTYMQLSSLTSEDSAVYFCARVDNSDPYYFDYWGQGTTLTVSSASTKGPSVFPLAPSSKSTSGGTAALGCLVKDYFPEPVTVSWNSGALTSGVHTFPAVLQSSGLYSLSSVVTVPSSSLGTQTYICNVNHKPSNTKVDKKVEPKSCDKTHTCPPCPAPEAAGGPSVFLFPPKPKDTLMISRTPEVTCVVVDVSHEDPEVKFNWYVDGVEVHNAKTKPREEQYNSTYRVVSVLTVLHQDWLNGKEYKCKVSNKALPAPIEKTISKAKGQPREPQVCTLPPSRDELTKNQVSLSCAVKGFYPSDIAVEWESNGQPENNYKTTPPVLDSDGSFFLVSKLTVDKSRWQQGNVFSCSVMHEALHNHYTQKSLSLSPGK heavy 2: not shown light 2: not shown | – | – | – | – | – | – | Kd [6]: 170 pM; koff [6]: 0.000133 s⁻¹; kon [6]: 786000 M⁻¹ s⁻¹; Kd [7]: 137000 pM; koff [7]: 0.00739 s⁻¹; kon [7]: 53800 M⁻¹ s⁻¹
